Experimental data published in a protein production outcome set (Wang et al. 2014).

experiment: label from the status in PepcDB records

| Sequence | protein production |
| --- | --- |
| MLDFLAANPLIALVVILAVGLAIGQIRVFGLSLGAAAVLFVALVVSTANTDIVIPMIVYQLGLAMFVYVIGLSAGPAFFSEFAKKGWKLTIFMLLLLATLIGLAWVLIKSLGLDAAIGTGMFTGALTSTPGMAAVVELIEGIDPSLASEPVIGYSLAYPGAVLGSIVVAAVGAKLLKVNHREDARKEGMITAPLVWKGVQLKPGITGRVGDLPRLAGESIIATRIVDDPHTHRLADPDLPITEGMELLINGTEEAVDRAIKALGEERETKIEDTELIYTRLTVSSPEVAGRTVAELDTVAHGFMIARIRQGDSEVVPKPDTVINYSDRIRVVVAPGRVAEVRRFLGDSEKSLADVNLLPLAIGLSLGLLLGAIPIPLPGGTTMSLGFGGGPIIAGLILGALKHTGPLTWQMPFHANRTISTLGLALFLAGVGTSAGAGFRAALTDSSSLIYMAGGLVITLASALLCAVIGMWVLRLRWDEAMGVAAGTTTNPAIISYLNGQTGTDLANRGYATVYPTAMIGKILGAQILFLLL | failed |
| MLDFYALEDLLTPEEKEVQKAARRFLEKEALPHIRDWWEEGVFPTHLIPRFAELGFLGPTLPPEYGGAGVSSAAYGLICYELERVDSGLRSFVSVQSSLVMYPIYAYGSEEQKREFLPKLARGEMVGCFGLTEPDGGSDPYGNMKTRARREGDTWVLNGTKMWITNGNLAHLAVIWAKDEGGEVLGFLVPTDTPGFQAREVKRKMSLRASVTSELVLEEVRVPESLRLPKALGLKAPLSCLTQARFGIAWGAMGALEAVYEEAVAFAKSRSTFGEPLAKKQLVQAKLAEMLAWHTEGLLLAWRLARLKDEGKLTPAQVSLAKRQNVWKALQAARMARDILGGSGITLEYHAIRHMLNLETVYTYEGTHDVHTLVLGREITGLNAF | not failed |
| MLDGQSCPLCPSRSSLPAGTSFHQSPMDIVTRTFEAPRTYRPSASVLGRAVRAWTNDRLRGEALYLVAMTGLTILLLMAHYLGWALLTSALAASQGWEPLFWQTQVGSVLVLAGLGLVGFRPAVRVTCRPDAVTLRQGDQTRTLSPPDIQDVRLISAQRYHRHYRRYAATQVFASAVSEQVLCVRTGDGPVIVALPGPEARAALLEHLEALTASASEAAARP | failed |
| MLDNHDLIVSSVEKNSPAWDAGLTTEDVIVAIDGLRLLDNELDNRLKDFKPKQTITVTYFRRDKLITSRLKLAAIPKNKLKIIPIAKASVLEHHHHHH | not failed |
| MLDVAPPVITPRGTKIEPSAGAPFEAVRVARDVLHTSRTAALATLDPVSGYPYTTATNIGIEPDGTPFFFAAGLTLHARNMETDARISVTLAPFGKGDALTLPRLTLVGRADRIGPDEVPLAIARYIARYPKAKLYLSLPDTRLYRLRTEGVQINGGPARNASNITPADLRTDLSGAEELMAAAESEATRLNAIKGEASRLAVLAGAKTGRWKITSIDPDGIDLASASDLARLWFAERVETLKQFEKALAQLLK | not failed |
| MLEKVEEWIKARGLTWRLLIMQKPTRTVAEAAALLGVSESEIVKTLIVLDNAGGVYAVVIPGDKRLNINSMKELAGKPVRLARANEVVELTGYPVGGVPPVALPPNIVLVVDRILLSRKKVYGGGGRENALLEFSPRELVEATGAVVADVSE | not failed |
| MLELCSIASGSSGNCICVGTDDCHVLIDAGISGKKIENGLNEFDMTATDMHGILVTHEHIDHIAGLGVMARRYHMPIYATKATIGAIKCTKSVGNIDDELFHPIEAGVDFTIGDIEFEPLHISHDAADPVAYRFKNENHAMAVVTDLGTYDDALVSKLQNLDGLLLEANHDINMLQTGAYPYPLKRRIMGDSGHLSNERSGQLLCELLHDKFGSVILGHLSKENNYEKLAYEAVRLEVTMGDNPYKASDFPMYVAKRDRASDRIAVE | failed |
| MLELRPARAADVPAIAAMHAASWRASYRGILPDDYLDRYAADERLSLWRRRFETASPPWVRLACWDGEPVGFVCLLPEEAPELGVYLDNLHVLPGQQGRGIGRALMAAAAAEAERIAPGRPLYLWVYERNADACAAYDKMGGVVMARREVDTAAGTRAIALRYSWP | failed |
| MLENSITYEKPLYIIKMNQRKKIVQIALPAMAENLLQMLMGVVDNYLVAQIGLVAVSGVSVANNIITIYQAIFIALGAAVSSLVAKSLGEDNQARVRFYQSESVAITLMLSVVLGFISFVFGSNMLHLLGTTDSVTQAGGIYLAIVGGLVVSLGLQTTLGAILRAQGKARLPMYVSFLTNIVNVILATTAIYIGHWGIVGVAAATVLSRFLGTFVLACQLPIKAILRSMRIKIDKAFLAIALPSAGERLMMRAGDVVIIAIIVKFGTAAVAGNAIGETLTQFNYMPGMGVATATVILVAHNLGQGKKKVIKEVVRESYIISTVFMLLVGACIFFGGRQLTYLFTENKAALQASLVVLFYSFIGGPATSGTLVFTAVWQGLGKAKLTFYATTVGMWLIRIVLGYYLGVSLNLGLAGVWLATLADNVFRWLFLYCLYRKYMQGFNNNLSSS | failed |
| MLERLKRIHYMFWISLIFMIFPILSVVTGWLSAWHLLIDILFVVAYLGVLTTKSQRLSWLYWGLMLTYVVGNTAFVAVNYIWFFFFLSNLLSYHFSVRSLKSLHVWTFLLAQVLVVGQLLIFQRIEVEFLFYLLVILTFVDLMTFGLVRIRIVEDLKEAQVKQNAQINLLLAENERSRIGQDLHDSLGHTFAMLSVKTDLALQLFQMEAYPQVEKELKEIHQISKDSMNEVRTIVENLKSRTLTSELETVKKMLEIAGIEVQVENHLDKSSLTQELESTASMILLELVTNIIKHAKASKVYLKLERTEKELILTVRDDGCGFASISGDELHTVRNRVFPFSGEVSVISQKHPTEVQVRLLYKERK | failed |
| MLETAALAAGMSWASGIRLYLAVLTAGVLARLGWLDLPPGLHVLESWWVIGIAGAMAAAEFVADKVPGFDTVWDGIQTFIRIPAGAILAAAAFGQLDPQWMVAAGLIGGTLAGTAHATKAGTRALINVSPEPFSNWVASFTEDITTAGGLLLAFFLPVVFLILLVLFLITAAWLLPKLWRGVRRLHAGLRGNADNQRP | failed |
| MLFEGLPCLAVWCKNRLSAVLPVGGLNVSENLLEIETHPFDPVLPPKAAVMMMGTFPPKEDKRAMQFHYPNFQNDMWRVYGLVFFNDAAHFQRLSEKAFDAEKIKAFLHERGIASCPTVLKAVRQHGNASDKFLKVVETVDLAAVLAKIPECRHICTTGGKATEILLDIQGGGIKMPKTGETVPFPFAGRDLTLTRLPSTSRAYPLSLAKKAAAYRAFFEMAGLCEKQLLEHHHHHH | failed |
| MLFEQIAANKRKTVFIILGFFIFVLMVGAAIGIIVWNNYLNGLILAAAIGAVYILIMVMSSSSVVMAMNHAKEVTSKEQAPVLWDTVESMAMVAGIPMPKVYIVEDPSPNAFATGISPEKGAVAVTRGLLNKLERYELEGVIAHEISHIRNYDIRLSTIAIALVAVIAILSDLAMRLIFWGSLTGGRNSRKSDNNNGGGAQIIIYVVALIFVILAPIIATAIQFALSRNREYLADASAVELTRNPDGLIQALQKISGDTKKMEEVSASSESIYFSSPLKSKKDKPGLFDSHPPISSRIERLENM | failed |
| MLFESINTGCLDGNDTPWMPFAPYSNDVMVKYFKIDPVRGETITLLKAPAGMEMPRHHHTGTVIVYTVQGSWRYKEHDWVAHAGSVVYETASTRHTPQSAYAEGPDIITFNIVAGELLYLDDKDNIIAVENWKTSMDRYLNYCKAHGIRPKDLSTFEG | not failed |
| MLFGGNRNKMLKTIITSAITYSSTAIDLLIILMLFFAKIKDKKGIRDIYIGQFLGSDVLILVSLFFAFILHYVPDKRLLGLLGIIPIFLGLKALIFGDSDGEKMANKELNNNNNKMNLIKTLMFITIVSCGADNIGLFVPYFISLTPLNLVITLIVFLIMIFLLVFVAQKLANVPTIGEVLEKYSRWFIGFVYIFIGGSVLIENGSIQFIINLFK | failed |
| MLFIAFAPFGAFALEANSKNDGYSLDDIKYYKIFENEDIPKIMYALRQGDFEIIAELKNEWEIEEEDVSFEYTTSKNPLGELIRDNLYELGQKYEVFEDESDFVSKMNVWATAFTKSMMKKSSEQKDKLIVQTVNALDNLDETLNLFSERLREWYSLYFPEMDNIVKKHDIYVSLVSEYGDREEYTRTKLKKTMPSNVARTISLAAKESMGADVSEFDLKIMKNLADEIKSMYEYRESLQEYLETSMNEIAPNLTKVAGASLGARLISLAGGIERLLRLPASTIQVIGAEKALFAHLRERALPPKHGVIFQHPLIQGSPWWIHGKIARAISCKISIAIRADAFGNDISDMLIEDMNKKVAEIKEKFPEPTRKRRPRPDTRSFGNKGGQDRDRRSQGDRKPSGNRGDSKKGGKPFGKKPAGKDDRRDNRKGDRKPFGGKPKNSGNQPPKERSGEKRRDSTKKVKAERKVIGKTSSQNLEHHHHHH | not failed |
